Binding data for two sequences are collected here from publication PMC4447067.

Holding throughout (details): GMSA: K-glu100 buffer (40 mM HEPES pH 8.0, 10 mM MgCl2, 100 mM K glutamate, 4 mM DTT, 500 ug/ml BSA), 15 min at 37 C, 1 nM DNA, 18-150 nM RNA polymerase …
Data set [1] concerns the target T1, EsigmaS RNA polymerase holoenzyme (reconstituted) (UniProt P13445+P0A7Z4+P0A8V2+P0A8T7+P0A800). The data set can be described thus: EMSA. On the technique in general: Mobility shift assays separate free from complexed probe on a gel.
For data set [2], the target named is T2, Esigma70 RNA polymerase holoenzyme (reconstituted) (UniProt P00579+P0A7Z4+P0A8V2+P0A8T7+P0A800). Put plainly: KMnO4 footprinting.
Data set [3] concerns the target T1, EsigmaS RNA polymerase holoenzyme (reconstituted). Put plainly: KMnO4 footprinting.
The target in data set [4] is T2, Esigma70 RNA polymerase holoenzyme (reconstituted). Put plainly: EMSA.

For “GATGGCGATAACTTCACTGGTGCGAAATGCGACCGAAGCAACCGCGCCATTACCGTCAATAGTAATCATATGACACCCTTACATTGCGCAAATGAGGGGCGCACGAAATTGCTGCGCGCCCAGTAGTAATCTTTCAATTTTAGCAAATGGCTTTCTTCTGCATTTTCGCTTTTGTGTCCCCCACATCAGCGTAATGAATGTTTTGATCAAACAGAGGGCAAAAAAATAGCCATAAAAAAGTAAAAATGCG (double strand) [ydbK promoter fragment]”, the binding entry in data set [1], in data set [2] and in data set [3] was “binds” each time.

On to “TATTCAGTCGCTGAAAAGCCGCTACGGCGAAAGTGAAGAGATCCTGTCGCTGCTTAATCTTTATCATAATCTGCTGCGGGAATGGTCGGAGATCTGATGCTTGAACTGCCCGAGTTCGTCCCTGGATTAGCTACACTTAACTGTACAAGTATTGATATGGGGAGGTCGATATGGCATCCGGTTGGGCTAACGATGACGCCGTCAACGAACAGATCAACAGTACAATT (double strand) [ybiI promoter fragment]”, for which the binding entry is “binds more weakly” in data set [4], “binds” in data set [1], “binds more weakly” in data set [2] and “binds” in data set [3].
